Data on one molecule can be found in publication PMC12916166 (The Journal of cell biology, 2025).

The target in the assay is Aip5C-L (997–1234) (S. cerevisiae, UniProt P43597 997-1233). The experiment in a line: fluorescence polarisation.
Aip5C-L (997–1234), sequence (P43597 997-1233): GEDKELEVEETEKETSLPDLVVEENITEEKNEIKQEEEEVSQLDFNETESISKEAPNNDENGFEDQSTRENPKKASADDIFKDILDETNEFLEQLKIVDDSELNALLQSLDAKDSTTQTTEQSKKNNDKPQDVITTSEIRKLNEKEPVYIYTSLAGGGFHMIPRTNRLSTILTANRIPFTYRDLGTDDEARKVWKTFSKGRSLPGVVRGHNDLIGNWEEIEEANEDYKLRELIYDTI

B1: Bud6 (1–145)-kCk-Alexa488 (domain or fragment, S. cerevisiae, UniProt P41697 1-145, looked up)
chain: MKMAVDDPTYGTPKIKRTASSSSSIETTVTKLLMSTKHLLQVLTQWSKGTTSGRLVSDAYVQLGNDFKVVSKFFMHAKVDMSDVGDVPMALRRVLEVTLREPPSDETLNKHLPKIREIIVTLLDKLKVKQAILKNMQQEHRISVK
modifications: Alexa488 maleimide on the single cysteine of the C-terminal KCK sequence
A word on the Kd: it is the concentration at which binding is half-saturated. A lower Kd goes with higher affinity. B1: the Kd is 85 nM.
